Data as given in US9023604 (IBA, dated 2015).

Columns and labels:
[1] = biological target: T1, CD4 cell surface receptor molecule on peripheral blood mononuclear cells (PBMCs) (human, UniProt P01730 26-458); assay: flow cytometry, PBMCs, live CD3+ T cells; column 'Fab multimer -> D-biotin': Fab-multimer staining analysed after treatment with D-biotin
T1 construct: whole, on cells; also called CD4 receptor molecule
Procedure: (§1) Remaining Fab-monomers (i.e. Fab fragments used as receptor binding reagent) on the target cell surface were then detected after subsequent washing steps to remove […] using Strep-Tactin PE alone (without bound Fab fragments) (fourth column). Fab-multimer staining after the reversible staining described above of the cells was performed again (fifth column) to control completion of biotin removal which otherwise would have hampered the staining of remaining Fab-monomers with Strep-Tactin PE alone (without bound Fab fragments) as shown in the fourth column and which thus would have led to a wrong conclusion of the experiment. Alternatively, cells were incubated with monomeric Fab-fragments, washed and subsequently analyzed after staining with Strep-Tactin® PE (first, i.e. left-most column). Live CD3^+ T cells are shown. Numbers in the dot plots indicate the percentage of cells within gates.
(§2) For staining of a CD4 receptor molecule specific target cell population in a mixture of cells, Strep-Tactin® labeled with phycoerythrine as a fluorescent label (IBA GmbH, Göttingen, Germany) was used as multimerization reagent together with the monomeric CD4 binding Fab-One-STrEP fragment of the variants of the antibody 13B8.2 (that served as receptor binding reagent) as described below. For FACS analysis 5×10^6 PBMCs were incubated with Fab multimers consisting of 0.2 μg Fab-fragment (comprising binding site B) equipped with the One-STrEP-tag (binding partner C) as receptor binding reagent and 0.75 μg Strep-Tactin® PE (IBA GmbH, Göttingen, Germany) as multimerization reagent using the protocol below. In addition, after FACS separation, the multivalent complexes were disrupted in a portion of each of the stained cells by addition of biotin as described below. Control antibody stainings were performed by concomitant application of the respective antibody: anti-CD4 (OKT4) (from eBiosciences, San Diego, Calif., USA). After the staining procedure of the present invention, cells were subsequently stained with propidium iodide for live/dead discrimination.
(§3) For staining and dissociation experiments, 5 ×10^6 PBMCs were incubated with the respective anti-CD4 Fab-multimer-Strep-Tactin® PE complexes or with the corresponding Fab-monomers (the latter not complexed with Strep-Tactin® PE).

[2] = biological target: T1, CD4 cell surface receptor molecule on …; assay: flow cytometry, PBMCs, live CD3+ T cells; column 'Fab multimer -> D-biotin -> Fab multimer': second Fab-multimer staining after D-biotin and washing
Text: as §1, with “Peripheral Blood Mononuclear Cells (PBMCs) were stained with anti-CD4 Fab fragments (receptor binding reagent) fused to a sequential arrangement of two Strep-tag® sequences (commercially available under the trade name "One-STrEP-tag"; binding partner C) and multimerized on phycoerythrin labeled Strep-Tactin® (Strep-Tactin PE; IBA GmbH, Göttingen, Germany; multimerization reagent comprising at least 2 binding sites Z for the binding partner C) and analyzed either before (second column) or after treatment with D-biotin (third column). Remaining” for “Remaining”
as §3

[3] = biological target: T1, CD4 cell surface receptor molecule on …; assay: flow cytometry, PBMCs, live CD3+ T cells; column 'Fab multimer -> D-biotin -> ST-PE': after D-biotin and washing, remaining Fab monomers detected with Strep-Tactin PE alone
Text: as §1, with “Peripheral Blood Mononuclear Cells (PBMCs) were stained with anti-CD4 Fab fragments (receptor binding reagent) fused to a sequential arrangement of two Strep-tag® sequences (commercially available under the trade name "One-STrEP-tag"; binding partner C) and multimerized on phycoerythrin labeled Strep-Tactin® (Strep-Tactin PE; IBA GmbH, Göttingen, Germany; multimerization reagent comprising at least 2 binding sites Z for the binding partner C) and analyzed either before (second column) or after treatment with D-biotin (third column). Remaining” for “Remaining”
(§4) For staining and dissociation experiments, 5 ×10^6 PBMCs were incubated with the respective anti-CD4 Fab-multimer-Strep-Tactin® PE complexes or with the corresponding Fab-monomers (the latter not complexed with Strep-Tactin® PE). […] After D-biotin-mediated disruption of the multimeric complexes (FIG. 2, third column) and subsequent washing, the cells were probed for residual surface-bound Fab fragments by the addition of Strep-Tactin® PE alone (without bound Fab) (FIG. 2, fourth column).

[4] = biological target: T1, CD4 cell surface receptor molecule on …; assay: flow cytometry, PBMCs, live CD3+ T cells; column 'Fab monomer -> ST-PE': cells incubated with monomeric Fab, washed, then stained with Strep-Tactin PE; y axis CD4 Fab-multimer / Fab-monomer, x axis CD8
Text: as §1, with “Peripheral Blood Mononuclear Cells (PBMCs) were stained with anti-CD4 Fab fragments (receptor binding reagent) fused to a sequential arrangement of two Strep-tag® sequences (commercially available under the trade name "One-STrEP-tag"; binding partner C) and multimerized on phycoerythrin labeled Strep-Tactin® (Strep-Tactin PE; IBA GmbH, Göttingen, Germany; multimerization reagent comprising at least 2 binding sites Z for the binding partner C) and analyzed either before (second column) or after treatment with D-biotin (third column). Remaining” for “Remaining”
as §4

[5] = biological target: T1, CD4 cell surface receptor molecule on …; assay: flow cytometry, PBMCs, live CD3+ T cells; column 'Fab multimer': Fab multimerized on Strep-Tactin PE
Procedure: as §1, §2
Protocol for Staining of 5×10^6 Cells with Receptor Binding Reagent and Multimerization Reagent 1. 0.75 μg Strep-Tactin PE were incubated with 0.2 μg monomeric CD4 binding Fab-One-STrEP fragment for 30 minutes at 4° C. in the dark. 2.

Row | Binder | percentage of cells within gate [1] [%] | percentage of cells within gate [2] [%] | percentage of cells within gate [3] [%] | percentage of cells within gate [4] [%] | percentage of cells within gate [5] [%]
1 | 13B8.2 Fab fragment (variable domains of murine anti-CD4 antibody 13B8.2, human CH1 gamma1 and human kappa constant domains), heavy chain fused to One-STrEP-tag (Fab, V domains shown, Expressed in the E. coli periplasm; Stained as a monomer or multimerized on Strep-Tactin PE; also called CD4 wt (13B8.2); 13B8.2 wildtype (wt) Fab fragment) VH: QVQLKQSGPGLVQPSQSLSITCTVSGFSLTTFGVHWVRQSPGKGLEWLGVIWRSGITDYNVPFMSRLSITKDNSKSQVFFKLNSLQPDDTAIYYCAKNDPGTGFAYWGQGTLVTVSA VL: DIQMTQSPASLSASVGETVTFTCRASEMIYSYLAWYQQKQGKSPQLLVHDAKTLAEGVPSRFSGGGSGTQFSLKINTLQPEDFGTYYCQHHYGNPPTFGGGTKLEIKR | 0.041 | 18.8 | 16.1 | 20 | 23.3
2 | Mutant 13B8.2 Fab fragment with Tyr at position 92 of the light chain mutated to Ala, heavy chain fused to One-STrEP-tag (Fab, V domains shown, also called CD4 mutant 2 (Y92A); mutant 2) VH: QVQLKQSGPGLVQPSQSLSITCTVSGFSLTTFGVHWVRQSPGKGLEWLGVIWRSGITDYNVPFMSRLSITKDNSKSQVFFKLNSLQPDDTAIYYCAKNDPGTGFAYWGQGTLVTVSA VL: DIQMTQSPASLSASVGETVTFTCRASEMIYSYLAWYQQKQGKSPQLLVHDAKTLAEGVPSRFSGGGSGTQFSLKINTLQPEDFGTYYCQHHAGNPPTFGGGTKLEIKR | 0.034 | 18.8 | 0.0017 | 0.0022 | 14.7
3 | Mutant 13B8.2 Fab fragment with His at position 91 of the light chain mutated to Ala, heavy chain fused to One-STrEP-tag (Fab, V domains shown, also called CD4 mutant 4 (H91A); mutant 4) VH: QVQLKQSGPGLVQPSQSLSITCTVSGFSLTTFGVHWVRQSPGKGLEWLGVIWRSGITDYNVPFMSRLSITKDNSKSQVFFKLNSLQPDDTAIYYCAKNDPGTGFAYWGQGTLVTVSA VL: DIQMTQSPASLSASVGETVTFTCRASEMIYSYLAWYQQKQGKSPQLLVHDAKTLAEGVPSRFSGGGSGTQFSLKINTLQPEDFGTYYCQHAYGNPPTFGGGTKLEIKR | 0.017 | 20 | 0.00284 | 0.0039 | 23.1
4 | Mutant 13B8.2 Fab fragment with His at position 35 of the heavy chain mutated to Ala, heavy chain fused to One-STrEP-tag (Fab, V domains shown, also called CD4 mutant 3 (H35A); mutant 3) VH: QVQLKQSGPGLVQPSQSLSITCTVSGFSLTTFGVAWVRQSPGKGLEWLGVIWRSGITDYNVPFMSRLSITKDNSKSQVFFKLNSLQPDDTAIYYCAKNDPGTGFAYWGQGTLVTVSA VL: DIQMTQSPASLSASVGETVTFTCRASEMIYSYLAWYQQKQGKSPQLLVHDAKTLAEGVPSRFSGGGSGTQFSLKINTLQPEDFGTYYCQHHYGNPPTFGGGTKLEIKR | 0.041 | 19.3 | 0.019 | 0.007 | 23.4
5 | Mutant 13B8.2 Fab fragment with Phe at position 100 of the heavy chain mutated to Ala, heavy chain fused to One-STrEP-tag (Fab, V domains shown, also called CD4 mutant 1 (F100A); F100K-H) VH: QVQLKQSGPGLVQPSQSLSITCTVSGFSLTTFGVHWVRQSPGKGLEWLGVIWRSGITDYNVPFMSRLSITKDNSKSQVFFKLNSLQPDDTAIYYCAKNDPGTGAAYWGQGTLVTVSA VL: DIQMTQSPASLSASVGETVTFTCRASEMIYSYLAWYQQKQGKSPQLLVHDAKTLAEGVPSRFSGGGSGTQFSLKINTLQPEDFGTYYCQHHYGNPPTFGGGTKLEIKR | 0.014 | 19.2 | 16.4 | 19.9 | 23
